From article PMC9664764 (iScience, 2022)

Biological target: T1, full-length Spike of SARS-CoV-2 on transfected 293T cells (SARS-CoV-2, UniProt P0DTC2)
T1 construct: also called Spike-expressing cells; Wuhan-hu-1 Spike
Assay: flow cytometry on cells
Conditions: one partner purified

B1: Ab159 (antibody, V domains shown)
VH: QVQLVESGGGLVKPGGSLRLSCAASGFTFNNAWMSWVRQAPGKGLEWVGRIKSKTDGGTTDYAAPVKGRFTFSRDDSKNTLYLQMSSLKTEDTALYYCTTADYDILTGTPASPYWGQGTLVTVSS
VL: DIQMTQSPSSLSASVGDRVTITCRASQSITNYLNWYQQKPGKAPKFLIYAASSLQGGVPSRFRGSGSGTDFTLTISSLQPEDFATYYCQQTYSTLWTFGQGTKVEIK
notes: copies: 2 + 2
binding result: binds
